Substitutions are numbered along the chain they refer to. In names and notes the source's numbering stands.
B1: PapA G15N (natural protein)
chain: APTIPQGQGKVTFNNTVVDAPCSISQKSADQSIDFGQLSKSFLEAGGVSKPMDLDIELVNCDITAFKGGNGAKKGTVKLAFTGPIVNGHSDELDTNGGTGTAIVVQGAGKNVVFDGSEGDANTLKDGENVLHYTAVVKKSSAVGAAVTEGAFSAVANFNLTYQ
notes: source: E. coli C600, co-expressed with PapDHis
B2: PapA I4G (natural protein)
chain: B1 chain with I4G, N15G
notes: as for B1
B3: PapA I4G G15N (natural protein)
chain: B1 chain with I4G
notes: as for B1
B4: PapA Ntd1 (residues 2 to 8 deleted) (natural protein)
chain: AGKVTFNGTVVDAPCSISQKSADQSIDFGQLSKSFLEAGGVSKPMDLDIELVNCDITAFKGGNGAKKGTVKLAFTGPIVNGHSDELDTNGGTGTAIVVQGAGKNVVFDGSEGDANTLKDGENVLHYTAVVKKSSAVGAAVTEGAFSAVANFNLTYQ
notes: also called Ntd1 (Δ2–8); source: E. coli C600, co-expressed with PapDHis
B5: PapA Ntd1 G15N T101L (residues 2 to 8 deleted, G15N, T101L) (natural protein)
chain: B4 chain with G8N, T94L
notes: Two copies stand in the PapD/(PapA)2 complex: one donor-strand complemented by PapD (dscPapA), one donor-strand exchanged with the Nte of the first (dsePapA); also called dscPapA; dsePapA; source: E. coli C600, co-expressed with PapDHis

What was measured:
[1] = target: the molecule itself; experiment: SEC; gel filtration of co-expressed PapDHis/PapA complexes immediately after purification; Superdex75 120 ml, 20 mM TrisHCl pH 7.5, 20 mM NaCl
[2] = target: the molecule itself; experiment: negative-stain electron microscopy; PapD/PapA samples frozen and thawed five times at 150 μg/ml in 10–20 mM TrisHCl pH 7.6, 20–50 mM NaCl; used the same day or kept at 4 °C up to 40 d; 1% uranyl acetate

Protein	binding result [1]	binding result [2]
B1	binds	–
B2	–	binds
B3	binds	–
B4	binds	–
B5	binds	–

— publication PMC1868955, “Crystal Structure of the P Pilus Rod Subunit PapA” (PLoS Pathogens, 2007)
